Source: paper PMC5988664

Biological target: endothelin-converting enzyme 1 (Ece1), monomer (mouse (endogenous in NMuMG and C2C12))
Assay: cross-linking

endothelin-converting enzyme 1 (Ece1), monomer, sequence (Q4PZA2 whole entry): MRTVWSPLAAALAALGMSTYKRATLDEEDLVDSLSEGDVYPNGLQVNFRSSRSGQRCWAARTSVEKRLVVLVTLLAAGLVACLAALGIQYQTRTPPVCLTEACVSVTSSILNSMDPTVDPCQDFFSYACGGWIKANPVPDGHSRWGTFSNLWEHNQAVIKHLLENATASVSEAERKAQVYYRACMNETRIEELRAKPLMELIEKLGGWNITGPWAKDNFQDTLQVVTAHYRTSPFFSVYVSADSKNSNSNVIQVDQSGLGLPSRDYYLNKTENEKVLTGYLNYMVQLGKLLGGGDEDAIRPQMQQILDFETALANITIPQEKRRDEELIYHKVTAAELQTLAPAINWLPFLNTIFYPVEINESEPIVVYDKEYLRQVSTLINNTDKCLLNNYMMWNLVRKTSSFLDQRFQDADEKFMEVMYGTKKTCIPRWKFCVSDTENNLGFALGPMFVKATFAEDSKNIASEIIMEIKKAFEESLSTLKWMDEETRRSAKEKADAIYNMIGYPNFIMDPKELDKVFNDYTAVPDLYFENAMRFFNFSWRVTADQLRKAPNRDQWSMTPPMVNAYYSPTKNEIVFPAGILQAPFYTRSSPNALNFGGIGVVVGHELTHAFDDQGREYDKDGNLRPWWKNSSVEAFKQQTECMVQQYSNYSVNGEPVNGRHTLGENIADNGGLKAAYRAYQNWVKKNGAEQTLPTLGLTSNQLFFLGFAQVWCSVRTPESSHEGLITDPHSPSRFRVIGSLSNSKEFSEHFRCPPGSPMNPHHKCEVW

## endothelin-converting enzyme 1 (Ece1), monomer
  stoichiometry N: 2
